Substrate in the data set: NC(=O)c1ccc[n+]([C@@H]2O[C@H](COP(=O)(O)OP(=O)(O)OC[C@H]3O[C@@H](n4cnc5c(N)ncnc54)[C@H](OP(=O)(O)O)[C@@H]3O)[C@@H](O)[C@H]2O)c1
Put plainly: purified protein, by the assay type.

Our source for the Km values is patent publication US5871948A.

B1: thermostable isocitrate dehydrogenase (iCDH) purified from Sulfolobus acidocaldarius DSM 639, FERM BP-5567 (Sulfolobus acidocaldarius DSM 639) (protein)
chain: MVMLYKEPQDGEPIKFEKGKWVVPNKPIILYIEGDGIGPEITNSAIRVVNKAVEKAYKSSREIKWLEVYAGEKANKITGDRFPKETQDMLLKYRVVLKGPLETPIGKGWKSINVAIRLMLDLYANIRPVKYIEGLESPLKHPEKVDMIIFRENTDDLYRGIEFPYDSEEAKKIRKFLREELKVDIEDDTGIGLKVMSKFKTQRITRLALNYALQNSRKKVTVMHKGNVMKYTEGSFREWAYEVALNEYRDKIVTEEEINRGVNSEGKVILNDRIADNMLQQIIIRPDEYDIILAPNVNGDYISDAAGALIGNIGMLGGANIGDTGGMFEAIHGTAPKYAGKNVANPTGIIKSCELMLYFMGWSEAARLIEKAINESIKQKKVTQDIARYLGITPLGTKEYTDTLVQIMDSF
One may read the Km as the concentration of substrate that gives half-maximal velocity. Take B1: the Km reads like this: (other: pH 8.6, 37° C., pH 8.6) 66 µM; (other: pH 9.5, 37° C., pH 9.5) 42 µM; (other: pH 10.0, 37° C., pH 10.0) 48 µM.
